Experimental data published in patent publication US6699969B1, “Assays for the detection of microtubule depolymerization inhibitors” (The Regents of the University of California, priority 1998, dated 2004).

Experiments:
[1] = literature values; cited from earlier work
microtubules = assay: DAPI fluorescence microtubule disassembly (severing) assay; assay type: biochemical, bovine; conditions: 2 μM microtubules, FIG. 5C
Protocol: ATPase activity was measured by a modified malachite green method (Kodama et al. (1986) J. Biochem. 99: 1465-1472). ATPase reactions of 50-100 μL were carried out in a buffer previously used for measuring the ATPase activity of native katanin [20 mM K-HEPES pH 8.0, 25 mM K-Glutamate, 2 mM MgCl2, 10% glycerol (v/v), 0.02% Triton X-100 (w/v), 1 mg/ml BSA] (McNally and Vale (1993) Cell, 75: 419-429), except that soybean trypsin inhibitor (SBTI) was replaced by BSA as a carrier protein because SBTI increased background phosphate contamination. An ATP regenerating system consisting of 0.5-1.0 mM phospho-enol pyruvate and 2U pyruvate kinase was included to minimize the inhibition by ADP observed previously for native katanin (McNally and Vale (1993) Cell, 75; 419-429). […] Microtubule concentration was determined by measuring the absorbance at 275 nm in 6M guanidine HCl by using a molecular mass of 110 kDa and an extinction coefficient of 1.03 ml*mg^−1*cm^−1 (Hackney (1988) Proc. Natl. Acad. Sci. USA, 85: 6314-6318). […]
DAPI severing assays were performed using conditions where the change in fluorescence intensity was linear with the amount of tubulin polymer added (Heusele et al. (1987) Eur. J. Biochem. 165: 613-620). […] The reaction volume was 80 μL, and. fluorescence intensity was measured by exciting at 370 nm and measuring the emission at 450 nm using a model 8100 fluorimeter. […]

[2] = test system: Taxol-stabilized, rhodamine-labeled microtubules; assay: Microscope-based microtubule severing assay; assay type: biochemical
Protocol: Microscope-based severing assays were performed using previously published procedures (McNally and Vale (1993) Cell, 75: 419-429), except that microtubules were immobilized by first perfusing flow cells with a bacterially expressed kinesin mutant that binds strongly to microtubules but is unable to hydrolyze ATP (K560, G234A mutant; R. Vale and E. Taylor, unpublished results). Assays were performed in 20 mM Hepes (pH 7.5), 2 mM MgCl2, 1 mM ATP with an oxygen scavenger system consisting of glucose oxidase (220 μg/ml), catalase (36 μg/ml), glucose (22.5 mM), and 2-mercaptoethanol (71.5 mM). Images were captured using a cooled, slow-scan CCD (Photometerics) and processed using Adobe Photoshop.

[3] = ATPase assay (modified malachite green method); assay type: biochemical
Protocol: ATPase activity was measured by a modified malachite green method (Kodama et al. (1986) J. Biochem. 99: 1465-1472). ATPase reactions of 50-100 μL were carried out in a buffer previously used for measuring the ATPase activity of native katanin [20 mM K-HEPES pH 8.0, 25 mM K-Glutamate, 2 mM MgCl2, 10% glycerol (v/v), 0.02% Triton X-100 (w/v), 1 mg/ml BSA] (McNally and Vale (1993) Cell, 75: 419-429), except that soybean trypsin inhibitor (SBTI) was replaced by BSA as a carrier protein because SBTI increased background phosphate contamination. An ATP regenerating system consisting of 0.5-1.0 mM phospho-enol pyruvate and 2U pyruvate kinase was included to minimize the inhibition by ADP observed previously for native katanin (McNally and Vale (1993) Cell, 75; 419-429). Microtubules were prepared from bovine brain tubulin (Hyman el al. (1 990) Meth. Enzymol. 196: 303-319; Williams and Lee (1982) Meth Enzymol. 85B: 376-385). After assembly, microtubules were sedimented (230,000×g; 10 min), resuspended in ATPase buffer lacking BSA, and the polymers were resuspended by repeated passage through a 27 gauge needle. Microtubule concentration was determined by measuring the absorbance at 275 nm in 6M guanidine HCl by using a molecular mass of 110 kDa and an extinction coefficient of 1.03 ml*mg^−1*cm^−1 (Hackney (1988) Proc. Natl. Acad. Sci. USA, 85: 6314-6318). […]

B1: p97: AAA ATPase cited for comparison (Peters et al. 1992) (protein, UniProt P23787 1-805, looked up)
Transitional endoplasmic …: MASGSDTKSDDLSTAILKQKSRPNRLIVDESINEDNSMVSLSQAKMDELQLFRGDTVLLKGKKRREAVCIVLSDDTCSDEKIRMNRVVRNNLRVRLGDVISIQPCPDVKYGKRVHVLPIDDTVEGITGNLFEVYLKPYFLEAYRPIRKGDIFLVRGGMRAVEFKVVETDPSPYCIVAPDTVIHCEGEPIKREDEEESLNEVGYDDIGGCRKQLAQIKEMVELPLRHPALFKAIGVKPPRGILLYGPPGTGKTLIARAVANETGAFFFLINGPEIMSKLAGESESNLRKAFEEAEKNAPAIIFIDELDAIAPKREKTHGEVERRIVSQLLTLMDGLKQRAHVIVMAATNRPNSIDPALRRFGRFDREVDIGIPDSTGRLEILQIHTKNMKLSDDVDLEQVANETHGHVGADLAALCSEAALQAIRKKMDLIDLEDETIDAEVMNSLAVTMDDFRWALSQSNPSALRETVVEVPQVTWEDIGGLEDVKRELQELVQYPVEHPDKFLKFGMTPSKGVLFYGPPGCGKTLLAKAIANECQANFISIKGPELLTMWFGESEANVREIFDKARQAAPCVLFFDELDSIAKARGGNIGDGGGAADRVINQILTEMDGMSIKKNVFIIGATNRPDIIDPAILRPGRLDQLIYIPLPDEKSRMAILKANLRKSPVAKDVDVDFLAKMTNGFSGADLTEICQRACKLAIRESIENEIRRERDRQTNPSAMEVEEDDPVPEIRRDHFEEAMRFARRSVSDNDIRKYEMFAQTLQQSRGFGSFRFPAGGQSGAGPSPGAGGGSGGGHFTEEDDDLYG
For B1, the “ATPase activity of other AAA proteins” value [1] is listed as 1 ATP/sec.

B2: p80: S. purpuratus katanin 80 kDa subunit, 690 a.a. polypeptide with six WD40 repeats (SEQ ID NO: 2) (protein, listed as Strongylocentrotus purpuratus)
chain: MATKRAWKLQELVAHSSNVNCLALGPMSGRVMVTGGEDKKVNLWAVGKQNCIISLSGHTSPVDSVKFNSSEELVVAGSQSGTMKIYDLEPAKIVRTLTGHRNSIRCMDFHPFGEFVASGSTDTNVKLWDVRRKGCIYTYKGHSDQVNMIKFSPDGKWLVTASEDTTIKLWDLTMGKLFQEFKNHTGGVTGIEFHPNEFLLASGSSDRTVQFWDLETFQLVSSTSPGASAVRSISFHPDGSYLFCSSQDMLHAFGWEPIRCFDTFSVFWGKVADTVIASTQLIGASFNATNVSVYVADLSRMSTTGIAQEPQSQPSKTPSGGAEEVPSKPLTASGRKNFVRERPHTTSSKQRQPDVKSEPERQSPTQDEGVKDDDATDIKDPDSYAKIFSPKTRVDHSPERNAQPFPAPLDVPGAQEPEPFKHPPKPAAAAAVAPVSRAPAPSASDWQPAQANPAPNRVPAATKPVPAQEVAPSRKPDPISTIIPSDRNKPANLDMDAFLPPAHAQQAPRVNAPASRKQSDSERIEGLRKGHDSMCQVLSSRHRNLDVVRAIWTAGDAKTSVESVVNMKDQAILVDILNIMLLKKSLWNLDMCVVVLPRLKELLSSKYENYVHTSCACLKLILKNFTSLFNQNIKCPPSGIDITREERYNKCSKCYSYLIATRGYVEEKQHVSGKLGSSFRELHLLLDQLE
modifications: katanin p80 subunit
In the case of B2, the “change in DAPI fluorescence” value (microtubules) is reported as “did not cause a change in fluorescence”, the microtubule severing ([2]; concentrations 5-fold higher than those used for p60 (0.5 μM)) is reported as “unable to sever microtubules” and the ATPase activity ([3]; baculovirus-expressed subunit alone) is reported as “no detectable ATPase activity”.

B3: p60: S. purpuratus katanin 60 kDa subunit, 516 a.a. AAA ATPase (SEQ ID NO: 1), baculovirus-expressed with N-terminal His(6) tag (protein, listed as Strongylocentrotus purpuratus)
chain: MSVDEICENTKMGREYALLGNYETSLVYYQGVLQQIQKLLTSVHEPQRKHQWQTIRQELSQEYEHVKNITKTLNGFKSEPAAPEPAPNHGRAAPFSHHQHAAKPAAAEPARDPDVWPPPTPVDHRPSPPYQRAARKDPPRRSEPSKPANRAPGNDRGGRGPSDRRGDARSGGGGRGGARGSDKDKNRGGKSDKDKKAPSGEEGDEKKFDPAGYDKDLVENLERDIVQRNPNVHWADIAGLTEAKRLLEEAVVLPLWMPDYFKGIRRPWKGVLMVGPPGTGKTMLAKAVATECGTTFFNVSSASLTSKYHGESEKLVRLLFEMARFYAPSTIFIDEIDSICSKRGTGSEHEASRRVKSELLIQMDGVSGPSAGEESSKMVMVLAATNFPWDIDEALRRRLEKRIYIPLPEIDGREQLLRINLKEVPLADDIDLKSIAEKMDGYSGADITNVCRDASMMAMRRRIQGLRPEEIRHIPKEELNQPSTPADFLLALQKVSKSVGKEDLVKYMAWMEEFGSV
modifications: N-terminal His6 tag; katanin p60 subunit
With B3 the “time until microtubules were completely disassembled” value ([2]; 0.1 μM protein) was 5 min and the “microtubule concentration at peak stimulation of ATP turnover” value [3] was about 2 μM tubulin.
